Patent US20220040304A1, “A COMPOSITION FOR CANCER CELL DEATH AND ITS USE” (Industry-University Cooperation Foundation Hanyang …, priority 2018, published 2022)
“Also recorded” adds a separate entry of the source.

Tests used:
Assay type in all cases: cell-based, human
MCF-7 cells [1] = assay: Cell death by SYTOX Green or EthD-1 and DAPI fluorescence (light irradiation or Co-h); conditions: MCF-7, protein 10 μM 24 hours; light 10 mW/cm^2 or Co-h 150 μM over time
Method: MCF-7 cells were seeded at 5×10^5 cells/mL in a 96-well plate (SPL Cell Culture Plate, 96 well (SPL, Cat #30096)), and cultured at 37° C. for 24 hours (overnight). After the culture for 24 hours, the cells were washed with FBS & Phenol red-free media (RPMI), and 100 μL of an FBS-free medium containing the purified protein (final concentration: 10 μM) was added, followed by reaction at 37° C. for 24 hours.
After the reaction for 24 hours, the cells were washed with FBS & Phenol red-free media (RPMI), and then 100 μL of FBS & Phenol red-free media (RPMI) was then added.
After the reaction, 8.1 μL of FMN (final concentration: 150 μM) was added. After reaction for 18 hours or 24 hours, the cells were washed with FBS & Phenol red-free media (RPMI), and 100 μL of FBS & Phenol red-free media (RPMI) containing FMN (final concentration: 150 μM) was added, followed by reaction at 37° C. for 1 hour.
After the irradiation with light at 10 mW/cm^2 over time, 50 μL of SYTOX Green (Thermo Scientific Inc., USA; final concentration: 261 nM) staining DNA of dead cells was added and reacted at 37° C. for 30 minutes, and 10 μL of DAPI (Vecta Labs., Australia) staining DNA of live cells was added and reacted for 5 minutes.
SYTOX Green or EthD-1 and DAPI fluorescence images were observed using a confocal microscope according to a protein type treated to cells and i) light irradiation time or ii) reaction time with a Co-h substrate, and cell death was confirmed by measuring relative fluorescence intensity at an excitation wavelength of 504 nm and an emission wavelength of 523 nm of SYTOX Green, and an excitation wavelength of 525 nm and an emission wavelength of 590 nm of EthD-1 using a plate reader.
Whether or not Cell death was observed by fluorescence microscopy using SYTOX Green (dead cell-specific dye, green) or EthD-1 (dead cell-specific dye, red) and DAPI (live cell-specific dye, blue).

MCF-7 cells [2] = assay: MTT colorimetric change and cell viability after reaction with Co-h substrate; conditions: MCF-7, protein 10 μM 24 hours, Co-h 150 μM, without light irradiation
Method: MCF-7 cells were seeded at 5×10^5 cells/mL in a 96-well plate (SPL Cell Culture Plate, 96 well (SPL, Cat #30096)), and cultured at 37° C. for 24 hours (overnight).
After the culture for 24 hours, the cells were washed with FBS & Phenol red-free media (RPMI), and 100 μL of an FBS-free medium containing the purified protein (final concentration: 10 μM) was added, followed by reaction at 37° C. for 24 hours.
After the reaction for 24 hours, the cells were washed with FBS & Phenol red-free media (RPMI), and then 100 μL of FBS & Phenol red-free media (RPMI) containing a Co-h substrate solution (final concentration: 150 μM) was added. The cells were washed with FBS & Phenol red-free media (RPMI), and 100 μL of fresh FBS & Phenol red-free media (RPMI) were then added.
10 μL of 3-(4,5-dimethylthiazol-2-yl)-2,5-diphenyltetrazolium bromide (MTT) (final concentration: 1×) was added, followed by reaction at 37° C. for 4 hours. After 100 μL of a supernatant was removed, 100 μL of DMSO was added, followed by reaction for 10 minutes. The colorimetric change of MTT according to a protein type treated to the cells and the light irradiation time was checked, and then cell viability was confirmed by measuring the absorbance intensity at 570 nm using a plate reader.
MTT is an assay for measuring cell proliferation or live cells through the presence of blue-violet insoluble […] in the mitochondria of the live cells, where it has been reduced from a yellow soluble substrate, MTT tetrazolium, by the action of a dehydrogenase.

MCF-7 cells [3] = assay: MTT colorimetric change and cell viability after light irradiation; conditions: MCF-7, protein 10 μM 24 hours, light 10 mW/cm^2, no Co-h
Method: MCF-7 cells were seeded at 5×10^5 cells/mL in a 96-well plate (SPL Cell Culture Plate, 96 well (SPL, Cat #30096)), and cultured at 37° C. for 24 hours (overnight). After the overnight culture, the cells were washed with FBS & Phenol red-free media (RPMI, Well Gene., Korea, Cat #LM011-02), and 100 μL of an FBS-free medium containing the purified protein (final concentration: 10 μM) was added, followed by reaction at 37° C. for 24 hours. After the reaction for 24 hours, the cells were washed with FBS & Phenol red-free media (RPMI), and then 100 μL of FBS & Phenol red-free media (RPMI) was added again. After light irradiation at 10 mW/cm^2 over time, the cells were washed with FBS & Phenol red-free media (RPMI), and 100 μL of FBS & Phenol red-free media (RPMI) was added again. 10 μL of 3-(4,5-dimethylthiazol-2-yl)-2,5-diphenyltetrazolium bromide (MTT; Cell Biolabs Inc., USA; final concentration: 1×) was added, followed by reaction at 37° C. for 4 hours. 100 μL of a supernatant was removed, and 100 μL of DMSO (Sigma-Aldrich., USA) was added, followed by reaction for 10 minutes. The colorimetric change of MTT according to a protein type treated to the cells and light irradiation time was confirmed, and then cell viability was confirmed by measuring the absorbance intensity at 570 nm using a plate reader.

B1: KR: first protein KillerRed, ROS-generating protein (superoxide), expressed from pRSET-KillerRed, 31 kDa (protein)
chain: MRGSHHHHHHGMASMTGGQQMGRDLYDDDDKDPMLCCMRRTKQVEKNDEDQKISEGGPALFQSDMTFKIFIDGEVNGQKFTIVADGSSKFPHGDFNVHAVCETGKLPMSWKPICHLIQYGEPFFARYPDGISHFAQECFPEGLSIDRTVRFENDGTMTSHHTYELDDTCVVSRITVNCDGFQPDGPIMRDQLVDILPNETHMFPHGPNAVRQLAFIGFTTADGGLMMGHFDSKMTFNGSRAIEIPGPHFVTIITKQMRDTSDKRDHVCQREVAYAHSVPRITSAIGSDED
modifications: pRSET-KillerRed
notes: first protein KillerRed, ROS-generating protein (superoxide), expressed from pRSET-KillerRed, 31 kDa
For B1, the “cell death by staining (SYTOX Green or EthD-1 dead cells, DAPI live cells)” value (“cell death by staining” for short) (MCF-7 cells [1]) was “stained with DAPI”, the “cell viability / colorimetric change of MTT with reaction time with Co-h” value (shortened to “cell viability / colorimetric change … with Co-h”) (MCF-7 cells [2]) was “the staining becomes pink” and the “cell viability / colorimetric change of MTT with light irradiation time” value (MCF-7 cells [3]) was “alive”.

B2: RLuc8.6-KR: fusion protein of RLuc8.6 and KillerRed without lead peptide, 69 kDa (protein)
chain: MRGSHHHHHHGMASMTGGQQMGRDLYDDDDKDPMASKVYDPEQRKRMITGPQWWARCKQMNVLDSFINYYDSEKHAENAVIFLHGNATSSYLWRHVVPHIEPVARCIIPDLIGMGKSGKSGNGSYRLLDHYKYLTAWFELLNLPKKIIFVGHDWGSALAFHYAYEHQDRIKAIVHMESVVDVIESWMGWPDIEEELALIKSEEGEKMVLENNFFVETLLPSKIMRKLEPEEFAAYLEPFKEKGEVRRPTLSWPREIPLVKGGKPDVVQIVRNYNAYLRASDDLPKLFIESDPGFFYNAIVEGAKKFPNTEFVKVKGLHFLQEDAPDEMGKYIKSFVERVLKNEQEFGGGMLCCMRRTKQVEKNDEDQKISEGGPALFQSDMTFKIFIDGEVNGQKFTIVADGSSKFPHGDFNVHAVCETGKLPMSWKPICHLIQYGEPFFARYPDGISHFAQECFPEGLSIDRTVRFENDGTMTSHHTYELDDTCVVSRITVNCDGFQPDGPIMRDQLVDILPNETHMFPHGPNAVRQLAFIGFTTADGGLMMGHFDSKMTFNGSRAIEIPGPHFVTIITKQMRDTSDKRDHVCQREVAYAHSVPRITSAIGSDED
modifications: pRSET-RLuc8.6-KillerRed
With B2 the “cell death by staining” value (MCF-7 cells [1]) was “stained with DAPI”, the “cell viability / colorimetric change … with Co-h” value (MCF-7 cells [2]) was “the staining becomes pink” and the “cell viability / colorimetric change of MTT with light irradiation time” value (MCF-7 cells [3]) was “alive”.

B3: RLuc8.6-KR-LP: fusion protein of RLuc8.6, KillerRed and lead peptide WLEAAYQRFL, 71 kDa (protein)
chain: MRGSHHHHHHGMASMTGGQQMGRDLYDDDDKDPMASKVYDPEQRKRMITGPQWWARCKQMNVLDSFINYYDSEKHAENAVIFLHGNATSSYLWRHVVPHIEPVARCIIPDLIGMGKSGKSGNGSYRLLDHYKYLTAWFELLNLPKKIIFVGHDWGSALAFHYAYEHQDRIKAIVHMESVVDVIESWMGWPDIEEELALIKSEEGEKMVLENNFFVETLLPSKIMRKLEPEEFAAYLEPFKEKGEVRRPTLSWPREIPLVKGGKPDVVQIVRNYNAYLRASDDLPKLFIESDPGFFYNAIVEGAKKFPNTEFVKVKGLHFLQEDAPDEMGKYIKSFVERVLKNEQEFGGGMLCCMRRTKQVEKNDEDQKISEGGPALFQSDMTFKIFIDGEVNGQKFTIVADGSSKFPHGDFNVHAVCETGKLPMSWKPICHLIQYGEPFFARYPDGISHFAQECFPEGLSIDRTVRFENDGTMTSHHTYELDDTCVVSRITVNCDGFQPDGPIMRDQLVDILPNETHMFPHGPNAVRQLAFIGFTTADGGLMMGHFDSKMTFNGSRAIEIPGPHFVTIITKQMRDTSDKRDHVCQREVAYAHSVPRITSAIGSDEDGGGWLEAAYQRFL
modifications: pRSET-RLuc8.6-KillerRed-Lead peptide
For B3, the “cell death by staining” value (MCF-7 cells [1]) was “stained with SYTOX Green or EthD-1; also recorded: the number of dead cells increases”, the “cell viability / colorimetric change … with Co-h” value (MCF-7 cells [2]) was “die and cell viability is reduced” and the “cell viability / colorimetric change of MTT with light irradiation time” value (MCF-7 cells [3]) was “killed; also recorded: cell viability decreased”.
